Data taken from patent US20100173800.

Target: MuA transposase (bacteriophage Mu) (UniProt P07636)
Assay: cell_activity
Conditions: HeLa electroporation; linear transposon about 100 cfu/ug; 5 bp target duplication in sequenced clones (Table 1)

MuA transposase (bacteriophage Mu), sequence (P07636 whole entry): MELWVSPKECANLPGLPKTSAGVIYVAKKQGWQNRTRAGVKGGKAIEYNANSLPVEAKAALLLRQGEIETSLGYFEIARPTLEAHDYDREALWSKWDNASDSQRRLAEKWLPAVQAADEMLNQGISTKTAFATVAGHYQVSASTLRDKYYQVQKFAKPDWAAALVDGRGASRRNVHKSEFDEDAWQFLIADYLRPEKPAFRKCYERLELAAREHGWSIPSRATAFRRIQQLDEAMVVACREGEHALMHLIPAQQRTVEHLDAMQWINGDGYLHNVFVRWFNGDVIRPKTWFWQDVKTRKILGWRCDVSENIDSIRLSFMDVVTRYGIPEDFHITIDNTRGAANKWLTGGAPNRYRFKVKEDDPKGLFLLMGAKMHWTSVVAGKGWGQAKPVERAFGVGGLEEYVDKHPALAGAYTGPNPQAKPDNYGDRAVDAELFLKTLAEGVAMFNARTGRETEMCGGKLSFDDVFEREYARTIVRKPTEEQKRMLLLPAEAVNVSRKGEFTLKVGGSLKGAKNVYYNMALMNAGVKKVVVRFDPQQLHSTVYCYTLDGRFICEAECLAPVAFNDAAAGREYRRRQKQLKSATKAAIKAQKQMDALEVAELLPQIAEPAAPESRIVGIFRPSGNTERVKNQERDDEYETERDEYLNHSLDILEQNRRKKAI

## Kan/Neo-Mu transposon (Kan/Neo-LoxP-Mu 2135 bp or Kan/Neo-p15A-Mu 2795 bp)
  activity: 2400 cfu/µg DNA
